Assay [1] has as its target wt-CFTR fused to enhanced green fluorescent protein (His10-SUMO*-CFTR^FLAG-EGFP), PKA phosphorylated (human) (UniProt P13569).
Assay [2] shares this target. This is another data set of the same source.
The target in assay [3] is stabilized version of human CFTR (stab-CFTR: 2PT/ΔRI/R1048A_1172X) (human) (UniProt P13569).

The text below walks through data of paper PMC6572788.

Chain of wt-CFTR fused to enhanced green fluorescent protein (His10-SUMO*-CFTR^FLAG-EGFP), PKA phosphorylated (human) (P13569 whole entry, the tested form may be a part): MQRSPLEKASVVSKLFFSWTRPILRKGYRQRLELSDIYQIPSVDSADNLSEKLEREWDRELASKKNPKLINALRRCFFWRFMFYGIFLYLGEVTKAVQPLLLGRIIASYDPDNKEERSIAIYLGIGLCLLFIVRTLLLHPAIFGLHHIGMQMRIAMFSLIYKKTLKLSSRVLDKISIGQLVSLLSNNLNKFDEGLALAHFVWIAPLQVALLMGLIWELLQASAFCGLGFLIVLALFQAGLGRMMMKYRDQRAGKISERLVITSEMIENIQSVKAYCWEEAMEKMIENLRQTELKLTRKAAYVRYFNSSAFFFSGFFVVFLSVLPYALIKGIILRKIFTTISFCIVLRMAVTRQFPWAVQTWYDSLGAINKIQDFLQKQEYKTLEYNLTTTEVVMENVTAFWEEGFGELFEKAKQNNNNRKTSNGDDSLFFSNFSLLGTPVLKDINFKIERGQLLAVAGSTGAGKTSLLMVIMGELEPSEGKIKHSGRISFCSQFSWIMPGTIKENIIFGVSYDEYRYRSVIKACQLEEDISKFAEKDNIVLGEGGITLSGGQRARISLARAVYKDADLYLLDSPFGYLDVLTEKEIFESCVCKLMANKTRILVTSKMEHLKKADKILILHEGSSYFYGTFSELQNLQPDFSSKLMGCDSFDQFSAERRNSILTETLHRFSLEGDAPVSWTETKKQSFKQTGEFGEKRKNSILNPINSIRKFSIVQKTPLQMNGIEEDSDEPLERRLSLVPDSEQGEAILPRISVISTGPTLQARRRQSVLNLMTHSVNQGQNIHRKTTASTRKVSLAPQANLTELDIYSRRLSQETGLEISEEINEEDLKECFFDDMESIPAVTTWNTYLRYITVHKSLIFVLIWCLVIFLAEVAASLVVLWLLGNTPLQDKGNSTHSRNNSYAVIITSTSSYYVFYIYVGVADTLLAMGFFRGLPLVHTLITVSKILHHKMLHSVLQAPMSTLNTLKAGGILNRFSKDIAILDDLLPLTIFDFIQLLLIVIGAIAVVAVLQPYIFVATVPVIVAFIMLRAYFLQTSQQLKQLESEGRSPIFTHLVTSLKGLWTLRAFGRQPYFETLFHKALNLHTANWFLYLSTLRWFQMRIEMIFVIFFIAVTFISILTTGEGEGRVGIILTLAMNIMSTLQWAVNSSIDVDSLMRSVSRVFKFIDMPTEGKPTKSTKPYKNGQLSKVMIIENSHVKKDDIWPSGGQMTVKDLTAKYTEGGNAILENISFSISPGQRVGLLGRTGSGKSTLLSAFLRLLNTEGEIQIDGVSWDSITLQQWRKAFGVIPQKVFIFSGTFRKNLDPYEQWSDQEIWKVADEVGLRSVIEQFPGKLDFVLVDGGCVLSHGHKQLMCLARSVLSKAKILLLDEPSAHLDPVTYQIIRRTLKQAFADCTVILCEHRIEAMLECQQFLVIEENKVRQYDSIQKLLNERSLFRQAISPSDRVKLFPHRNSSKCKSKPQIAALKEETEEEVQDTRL
Chain of stabilized version of human CFTR (stab-CFTR: 2PT/ΔRI/R1048A_1172X) (human) (P13569 other isoform, or with tags, fused parts or gaps, stated change not applied): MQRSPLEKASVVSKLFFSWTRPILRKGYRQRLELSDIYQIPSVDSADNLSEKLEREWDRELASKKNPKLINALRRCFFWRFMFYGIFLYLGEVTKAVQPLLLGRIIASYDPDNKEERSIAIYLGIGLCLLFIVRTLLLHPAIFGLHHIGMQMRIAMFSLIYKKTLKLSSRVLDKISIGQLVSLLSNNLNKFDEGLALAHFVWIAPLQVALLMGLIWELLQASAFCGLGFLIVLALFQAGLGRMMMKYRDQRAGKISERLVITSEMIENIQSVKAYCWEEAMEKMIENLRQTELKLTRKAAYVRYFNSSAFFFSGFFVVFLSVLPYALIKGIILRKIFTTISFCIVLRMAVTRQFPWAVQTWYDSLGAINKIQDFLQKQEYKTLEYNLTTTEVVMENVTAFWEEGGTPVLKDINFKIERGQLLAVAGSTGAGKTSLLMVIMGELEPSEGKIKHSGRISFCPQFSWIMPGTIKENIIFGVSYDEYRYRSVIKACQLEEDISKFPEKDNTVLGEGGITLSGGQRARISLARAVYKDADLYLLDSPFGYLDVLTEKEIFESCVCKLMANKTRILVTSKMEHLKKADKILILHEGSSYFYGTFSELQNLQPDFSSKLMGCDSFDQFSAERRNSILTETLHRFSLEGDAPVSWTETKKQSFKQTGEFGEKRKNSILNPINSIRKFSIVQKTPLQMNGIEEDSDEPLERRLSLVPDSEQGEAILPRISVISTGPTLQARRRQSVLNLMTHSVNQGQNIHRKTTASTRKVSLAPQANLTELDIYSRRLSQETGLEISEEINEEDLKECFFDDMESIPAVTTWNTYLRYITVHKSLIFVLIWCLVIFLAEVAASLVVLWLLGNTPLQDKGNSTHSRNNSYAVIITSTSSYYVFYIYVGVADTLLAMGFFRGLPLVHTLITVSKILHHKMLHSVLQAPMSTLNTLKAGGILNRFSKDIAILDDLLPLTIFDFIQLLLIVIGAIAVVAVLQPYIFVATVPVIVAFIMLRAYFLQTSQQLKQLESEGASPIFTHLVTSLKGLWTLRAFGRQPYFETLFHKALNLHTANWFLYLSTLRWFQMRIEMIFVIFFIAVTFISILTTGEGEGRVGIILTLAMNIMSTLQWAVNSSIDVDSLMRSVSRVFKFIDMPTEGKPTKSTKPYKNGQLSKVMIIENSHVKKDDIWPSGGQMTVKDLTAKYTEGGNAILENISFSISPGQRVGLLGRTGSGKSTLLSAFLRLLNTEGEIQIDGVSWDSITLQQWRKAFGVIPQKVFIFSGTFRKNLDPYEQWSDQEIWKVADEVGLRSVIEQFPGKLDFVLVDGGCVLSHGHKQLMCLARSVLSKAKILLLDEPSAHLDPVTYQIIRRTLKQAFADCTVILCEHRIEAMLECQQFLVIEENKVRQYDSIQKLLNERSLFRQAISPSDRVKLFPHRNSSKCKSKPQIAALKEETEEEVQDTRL

B1: nanobody G3a (VHH)
VHH: QVQLQESGGGLVQAGGSLRLSCTASGRAFSWYVMGWFRQAPGKEREFVATVSGNGSRRDYADSVKGRFTISRDNAKNTVYLQMNSLKPEDTAVYYCAASSTYYYTDPEKYDYWGQGTQVTVSS
Consider B1, for which the shift of the temperature of thermal inactivation of the ATPase activity of wt-CFTR (30 min heat challenge; 15 µM G3a) in assay [1] was 3.1 °C.

B2: nanobody T27 (VHH)
VHH: QVQLQESGGGLEQPGGSLRLSCATSGVIFGINAMGWYRQAPGKQRELVATFTSGGSTNYADFVEGRFTISRDNAKNTVYLQMNGLRPEDTAVYYCHATVVVSRYGLTYDYWGQGTQVTVSS
For B2, the ATPase activity of PKA-phosphorylated wt-CFTR (25 nM) with 1 µM nanobody, percent of the activity without nanobody in assay [2] was found to be 30%.

B3: nanobody T2a (VHH)
VHH: QVQLQESGGGLVQAGGSLRLSCAASGSIFRIDAMGWYRQAPGKQRELVAHSTSGGSTDYADSVKGRFTISRDNAKNTVYLQMNSLKPEDTAVYYCNADVRTRWYASNNYWGQGTQVTVSS
As for B3, in assay [2], the ATPase activity of PKA-phosphorylated wt-CFTR (25 nM) with 1 µM nanobody, percent of the activity without nanobody amounted to 50%. Moreover, in assay [3], the thermostabilization of stab-CFTR by nanoDSF (~1:2 molar ratio) came out at 8 °C.

B4: nanobody T4 (VHH)
VHH: QVQLQESGGGLVQAGGSLRLSCAASGSTFAIIAMGWYRQAPGKQRELVAVISTGDTRYADSVKGRFTISRDNAKNTVYLQMDSLRPEDTAVYYCNAAVQVRDYRNYWGQGTQVTVSS
In the case of B4, the thermostabilization of stab-CFTR by nanoDSF (~1:2 molar ratio) in assay [3] is 8 °C.

B5: nanobody D12 (VHH)
VHH: QVQLQESGGGLVQAGSSLRLACAATGSIRSINNMGWYRQAPGKQRGMVAIITRVGNTDYADSVKGRFTISRDNAKNTVYLQMNSLKPEDTATYYCHAEITEQSRPFYLTDDYWGQGTQVTVSS
In the case of B5, in assay [2], the ATPase activity of PKA-phosphorylated wt-CFTR (25 nM) with 1 µM nanobody, percent of the activity without nanobody worked out at 50%. For the same molecule, the shift of the temperature of thermal inactivation of the ATPase activity of wt-CFTR (30 min heat challenge) in assay [1] was determined as 7 °C.
